Measured values: publication PMC8519931

Biological target: GFP-LC3B (UniProt Q9GZQ8)
Assay: co-IP; GFP-LC3 captured on GFP-Trap magnetic beads from HEK-293 T lysates (NP-40 IP lysis buffer: 50 mM Tris-HCl pH 7.5, 150 mM NaCl, 1 mM EDTA, 1% IGEPAL), 1 h at 4 °C; HA-BNIP3 forms detected by blot; cells with or without 100 nM bafilomycin A1 and with or without exogenous FLAG-ULK1

HA-BNIP3 (WT) (natural protein), sequence (Q12983 whole entry): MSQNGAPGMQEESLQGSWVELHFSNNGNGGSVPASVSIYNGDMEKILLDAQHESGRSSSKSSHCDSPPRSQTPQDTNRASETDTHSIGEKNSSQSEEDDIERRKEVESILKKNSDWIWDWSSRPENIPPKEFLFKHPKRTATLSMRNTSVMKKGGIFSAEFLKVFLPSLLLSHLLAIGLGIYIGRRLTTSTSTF

| fold increase in binding with 100 nM bafilomycin A1 against untreated cells | Substance |
| --- | --- |
| 2.5 fold | HA-BNIP3 (WT) (natural protein) |
| 9 fold | HA-BNIP3 S17E (natural protein) |
